Positions count from the first letter of the chain named. Names and notes keep the numbering of the source.
B1: IRL24 (receptor)
CRIg variant: RPILEVPESVTGPWKGDVNLPCTYDPLQGYTQVLVKWLVQRDSHFVTIFLRDSSGDHIQIAKYRGRLHVSHKVPGDVSLQLSTLEMDDRSHYTCEVTWQTPDGNQVVRDKITELRVQKHSSKLLKTKTEAPTTMTYPLKATSTVKQSWDWTTDMDGYLGETSAGPGKSLP
notes: the mutation string is cut off at the cell border on the sheet; also called Q60I/Q64R/G42D/D44H/P45F
B2: IRL41 (receptor)
CRIg variant: B1 CRIg variant with D42G, H44D, F45P, M86Y
notes: also called RIL41; RIL 41
B3: YL24 (receptor)
CRIg variant: B1 CRIg variant with I60Q, R64Q, M86Y
notes: also called M86Y/G42D/D44H/P45F
B4: YL59 (receptor)
CRIg variant: B1 CRIg variant with D42G, H44D, F45P, I60Q, R64Q, M86Y, Q105R, K110N
notes: also called M86Y/Q105R/K110N
B5: IRL52 (receptor)
CRIg variant: B1 CRIg variant with D42G, H44D, F45P, Q105K
notes: also called Q60I-Q64R/Q105K
B6: IRL51 (receptor)
CRIg variant: B1 CRIg variant with D42G, H44D, F45P, Q105R
notes: also called Q60I-Q64R/Q105R
B7: IRL55 or IRL56 (last digit not sure) (receptor)
CRIg variant: B1 CRIg variant with D42G, H44D, F45P, K110N
notes: row between IRL52 and IRL59; also called Q60I-Q64R/K110N
B8: IRL11 (receptor)
CRIg variant: RPILEVPYSVTGPWKGDVNLPCTYDPLQGYTQVLVKWLVQRGSDPVTIFLRDSSGDHIQIAKYRGRLHVSHKVPGDVSLQLSTLEMDDRSHYTCEVTWQTPDGNQVVRDKITELRVQKHSSKLLKTKTEAPTTMTYPLKATSTVKQSWDWTTDMDGYLGETSAGPGK
notes: also called Q60I-Q64R/E8Y
B9: IRL21 (receptor)
CRIg variant: B8 CRIg variant with Y8E, G42D
notes: also called Q60I-Q64R/G42D
B10: L24 (receptor)
CRIg variant: B8 CRIg variant with Y8E, G42D, D44H, P45F, I60Q, R64Q
notes: also called G42D/D44H/P45F (printed G42D/D44/H/P45F)
B11: IRL23 (receptor)
CRIg variant: B8 CRIg variant with Y8E, P45F
notes: also called Q60I-Q64R/P45F
B12: RL59 (receptor)
CRIg variant: B8 CRIg variant with Y8E, I60Q, Q105R, K110N
notes: also called Q64R/Q105R/K110N

What was measured:
C3b [1] = biological target: T1, C3b (human, UniProt P01024 23-667; P01024 749-1663); test: competitive ELISA, column 'Mu Ic50 (nM)'; format of paragraph 183: variant in solution competes with coated huCRIg(L)-LFH for C3b
T1 construct: also called soluble C3b; human C3b
T1 sequence (P01024 23-667 limits assumed, chain 1 of 2): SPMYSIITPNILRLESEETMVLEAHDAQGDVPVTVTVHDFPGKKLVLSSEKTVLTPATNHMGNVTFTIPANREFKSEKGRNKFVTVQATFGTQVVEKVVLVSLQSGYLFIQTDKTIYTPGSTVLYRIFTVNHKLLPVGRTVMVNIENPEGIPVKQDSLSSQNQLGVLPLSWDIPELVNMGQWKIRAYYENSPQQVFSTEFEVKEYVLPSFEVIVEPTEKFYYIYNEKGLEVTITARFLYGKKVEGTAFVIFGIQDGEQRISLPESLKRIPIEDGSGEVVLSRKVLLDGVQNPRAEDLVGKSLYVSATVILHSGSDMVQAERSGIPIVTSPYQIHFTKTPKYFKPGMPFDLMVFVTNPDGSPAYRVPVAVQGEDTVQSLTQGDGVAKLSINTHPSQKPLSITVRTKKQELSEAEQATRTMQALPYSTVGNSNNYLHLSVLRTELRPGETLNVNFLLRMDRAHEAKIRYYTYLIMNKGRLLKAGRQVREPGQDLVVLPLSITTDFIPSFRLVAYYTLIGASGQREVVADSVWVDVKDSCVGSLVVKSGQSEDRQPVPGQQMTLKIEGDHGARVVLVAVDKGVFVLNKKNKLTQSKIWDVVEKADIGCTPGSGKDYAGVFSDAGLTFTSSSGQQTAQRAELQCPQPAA
T1 sequence (P01024 749-1663 limits assumed, chain 2 of 2): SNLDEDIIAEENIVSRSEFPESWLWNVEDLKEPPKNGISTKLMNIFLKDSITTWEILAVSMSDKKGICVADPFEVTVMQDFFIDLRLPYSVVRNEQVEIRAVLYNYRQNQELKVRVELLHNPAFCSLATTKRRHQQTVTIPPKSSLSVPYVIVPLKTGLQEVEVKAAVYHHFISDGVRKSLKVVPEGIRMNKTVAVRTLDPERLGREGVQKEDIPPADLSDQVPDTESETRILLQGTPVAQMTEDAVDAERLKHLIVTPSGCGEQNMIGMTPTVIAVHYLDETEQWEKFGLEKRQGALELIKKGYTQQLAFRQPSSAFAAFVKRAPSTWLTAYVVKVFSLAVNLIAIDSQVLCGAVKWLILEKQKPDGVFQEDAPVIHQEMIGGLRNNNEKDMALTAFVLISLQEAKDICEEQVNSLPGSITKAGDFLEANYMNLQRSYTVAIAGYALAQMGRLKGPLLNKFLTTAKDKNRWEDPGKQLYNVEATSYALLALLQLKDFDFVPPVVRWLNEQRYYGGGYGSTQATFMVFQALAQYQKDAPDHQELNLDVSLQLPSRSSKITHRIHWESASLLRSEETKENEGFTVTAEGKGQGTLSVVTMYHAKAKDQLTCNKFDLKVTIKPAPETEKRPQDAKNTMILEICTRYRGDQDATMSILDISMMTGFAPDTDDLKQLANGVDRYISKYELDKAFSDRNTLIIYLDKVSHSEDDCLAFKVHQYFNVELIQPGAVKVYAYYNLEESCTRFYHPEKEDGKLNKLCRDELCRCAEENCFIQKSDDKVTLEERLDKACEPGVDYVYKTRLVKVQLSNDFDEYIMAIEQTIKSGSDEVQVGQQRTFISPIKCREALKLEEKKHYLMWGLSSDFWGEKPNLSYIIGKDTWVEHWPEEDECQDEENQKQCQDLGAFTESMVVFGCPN
Experimental: (§1) huCRIg(L)-LFH was diluted to 2μg/mL in PBS, pH 7.4, and coated onto Maxisorp 384-well flat bottom plates (Nunc, Neptune, NJ) by incubating overnight (16-18 hr) at 4° C. (25 ul/well). The plates were washed 3 times in Wash Buffer (PBS, pH7.4, 0.05% Tween 20), and 50 ul/well of Block Buffer (PBS, pH 7.4, 0.5% BSA) was added to each well. The plates were allowed to block for 1-3hr; this and all subsequent incubations were performed on an orbital shaker at room temperature. During the blocking step, C3b (purified at Genentech) was diluted to 20 nM in Assay Buffer (PBS pH7.4, 0.5% BSA, 0.05% Tween-20), and the mutCRlg-huFc molecules were serially diluted in Assay Buffer, over a concentration range of 20,000—0.34 nM. The C3b and mutCRlg-huFc molecules were then mixed 1:1 and allowed to pre-incubate for 0.5-1 hr. The blocked plates were washed three times (as described above), and the C3b:mutCRlg-huFc complexes were added to the reaction plates (25 ul/well). After a 1-2 hr incubation, The ELISA plates were washed three times, (as described above) and plate-bound C3b was detected by the addition of an anti-human C3b antibody (clone 5F202, US Biological, Swampscott, Mass.; 600 ng/mL, 25 ul/well). The plates were incubated for 1-2 hr and washed as described above. HRP-conjugated anti-murine Fc IgG (Jackson ImmunoResearch, West Grove, Pa.) diluted 1:2,000 was then added (25 ul/well), and the plates were incubated for 1-2 hr. After a final wash, 25 ul/well of TMB substrate (Kirkegaard & Perry Laboratories, Gaithersburg, Md.) was added to the ELISA plates. Color development was stopped after approximately 8min by adding 25 ul/well 1.0M phosphoric acid. Absorbance at 450 nm and 650 nm was determined using a SpectraMax 250 microtiter plate reader (Molecular Devices, Sunnyvale, Calif.).

C3b [2] = biological target: T1, C3b; test: competitive ELISA (competitive displacement of C3b); format of paragraph 183: variant in solution competes with coated huCRIg(L)-LFH for C3b
Experimental: as §1, with “HRP-conjugated anti-murine Fc IgG (Jackson ImmunoResearch, West Grove, Pa.) diluted 1:2,000 was then added (25 ul/well), and the plates were incubated for 1-2 hr. After a final wash, 25 ul/well of TMB substrate (Kirkegaard & Perry Laboratories, Gaithersburg, Md.) was added to the ELISA plates. Color development was stopped after approximately 8min by adding 25 ul/well 1.0M phosphoric acid.” left out

Binder | IC50 (C3b [1]) | IC50 (read off the curve) (C3b [2])
B1 | 4 nM | 
B2 | 10 nM | ~10 nM
B3 | 31 nM | 
B4 | 18 nM | 
B5 | 22 nM | 
B6 | 24 nM | 
B7 | 33 nM | 
B8 | 34 nM | 
B9 | 29 nM | 
B10 | 238 nM | 
B11 | 31 nM | 
B12 | 65 nM | 

Source: patent US20160008427A1 (Genentech, published 2016)
